Assay results reported in paper PMC11198818, “Positive charges promote the recognition of proteins by the chaperone SlyD from Escherichia coli” (PLOS ONE, 2024).

What was measured:
Assay in all cases: ITC; VP-ITC (MicroCal), 30°C, 10 mM potassium phosphate buffer pH 7.6 or 7.8; SlyD or its variant 30 uM in the calorimetric cell, HiPIP precursor (RR-HiPIP) injected: 100 uM, 2x 22 injections of 10 uL (Fig 4); 200 uM, 23 injections of 10 uL (Fig 3)
Settings in all cases: both partners purified
[1] = target: T1, SlyD D101A, C-terminally hexahistidine-tagged (E. coli, UniProt P0A9K9 1-196, D101A)
T1 construct: FKBP-type peptidyl-prolyl cis-trans isomerase SlyD, E. coli; the tag is fused to the C-terminal domain; not shown: His6, C-terminal, kept
T1 sequence: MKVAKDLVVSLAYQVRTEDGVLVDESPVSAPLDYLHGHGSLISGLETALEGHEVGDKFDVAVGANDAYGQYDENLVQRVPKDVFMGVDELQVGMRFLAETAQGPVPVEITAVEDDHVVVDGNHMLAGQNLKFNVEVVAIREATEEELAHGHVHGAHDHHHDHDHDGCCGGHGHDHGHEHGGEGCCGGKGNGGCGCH

[2] = target: T2, SlyD E108A, C-terminally hexahistidine-tagged (E. coli, UniProt P0A9K9 1-196, E108A)
T2 construct: FKBP-type peptidyl-prolyl cis-trans isomerase SlyD, E. coli; the tag is fused to the C-terminal domain; not shown: His6, C-terminal, kept
T2 sequence: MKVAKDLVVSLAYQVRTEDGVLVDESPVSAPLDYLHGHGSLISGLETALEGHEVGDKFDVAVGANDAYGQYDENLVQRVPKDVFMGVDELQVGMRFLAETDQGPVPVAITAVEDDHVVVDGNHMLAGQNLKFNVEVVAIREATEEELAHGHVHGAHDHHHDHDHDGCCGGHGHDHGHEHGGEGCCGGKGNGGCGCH

[3] = target: T3, SlyD D115A, C-terminally hexahistidine-tagged (E. coli, UniProt P0A9K9 1-196, D115A)
T3 construct: FKBP-type peptidyl-prolyl cis-trans isomerase SlyD, E. coli; the tag is fused to the C-terminal domain; not shown: His6, C-terminal, kept
T3 sequence: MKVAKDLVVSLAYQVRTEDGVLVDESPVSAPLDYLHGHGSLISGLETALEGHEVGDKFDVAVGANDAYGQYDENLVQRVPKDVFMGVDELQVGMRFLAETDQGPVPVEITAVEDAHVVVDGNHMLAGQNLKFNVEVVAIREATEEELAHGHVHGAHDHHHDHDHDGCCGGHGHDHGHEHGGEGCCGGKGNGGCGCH

[4] = target: T4, SlyD Y68S, C-terminally hexahistidine-tagged (E. coli, UniProt P0A9K9 1-196, Y68S)
T4 construct: FKBP-type peptidyl-prolyl cis-trans isomerase SlyD, E. coli; the tag is fused to the C-terminal domain; not shown: His6, C-terminal, kept
T4 sequence: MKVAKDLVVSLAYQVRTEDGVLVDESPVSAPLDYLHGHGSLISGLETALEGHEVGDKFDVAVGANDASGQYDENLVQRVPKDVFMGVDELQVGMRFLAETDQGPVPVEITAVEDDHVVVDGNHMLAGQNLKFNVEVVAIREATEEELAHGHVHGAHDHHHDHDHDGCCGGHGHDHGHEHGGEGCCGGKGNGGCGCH

[5] = target: T5, SlyD E73A, C-terminally hexahistidine-tagged (E. coli, UniProt P0A9K9 1-196, E73A)
T5 construct: FKBP-type peptidyl-prolyl cis-trans isomerase SlyD, E. coli; the tag is fused to the C-terminal domain; not shown: His6, C-terminal, kept
T5 sequence: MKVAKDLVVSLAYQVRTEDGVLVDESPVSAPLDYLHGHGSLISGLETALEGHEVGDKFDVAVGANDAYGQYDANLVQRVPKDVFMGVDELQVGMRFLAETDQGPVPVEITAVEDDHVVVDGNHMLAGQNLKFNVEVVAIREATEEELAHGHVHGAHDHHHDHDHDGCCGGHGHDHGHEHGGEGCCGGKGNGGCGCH

[6] = target: T6, SlyD F84A, C-terminally hexahistidine-tagged (E. coli, UniProt P0A9K9 1-196, F84A)
T6 construct: FKBP-type peptidyl-prolyl cis-trans isomerase SlyD, E. coli; the tag is fused to the C-terminal domain; not shown: His6, C-terminal, kept
T6 sequence: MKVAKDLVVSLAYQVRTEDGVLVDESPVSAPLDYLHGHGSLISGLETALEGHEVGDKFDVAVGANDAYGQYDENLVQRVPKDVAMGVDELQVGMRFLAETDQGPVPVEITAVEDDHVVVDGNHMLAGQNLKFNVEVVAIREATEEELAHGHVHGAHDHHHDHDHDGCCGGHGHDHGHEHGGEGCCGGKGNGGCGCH

[7] = target: T7, SlyD F96A, C-terminally hexahistidine-tagged (E. coli, UniProt P0A9K9 1-196, F96A)
T7 construct: FKBP-type peptidyl-prolyl cis-trans isomerase SlyD, E. coli; the tag is fused to the C-terminal domain; not shown: His6, C-terminal, kept
T7 sequence: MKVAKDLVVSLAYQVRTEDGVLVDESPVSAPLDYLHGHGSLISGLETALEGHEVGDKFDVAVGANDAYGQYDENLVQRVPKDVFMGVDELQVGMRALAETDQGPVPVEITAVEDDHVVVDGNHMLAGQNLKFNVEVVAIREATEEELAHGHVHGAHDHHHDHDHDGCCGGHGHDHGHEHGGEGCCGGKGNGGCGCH

B1: HiPIP precursor (RR-HiPIP) from Allochromatium vinosum (natural protein)
chain: MSDKPISKSRRDAVKVMLGTAAAIPMINLVGFGTARASAPANAVAADDATAIALKYNQDATKSERVAAARPGLPPEEQHCANCQFMQADAAGATDEWKGCQLFPGKLINVNGWCASWTLKAG
modifications: HiPIP precursor; fully folded, [4Fe-4S] cluster presumed; signal peptide retained
[1]
  stoichiometry N: 0.604 ± 0.012
[2]
  stoichiometry N: 0.569 ± 0.015
[3]
  Kd: 270 ± 20 nM
  stoichiometry N: 0.541 ± 0.026
[4]
  stoichiometry N: 0.462 ± 0.003
[5]
  Kd: 320 ± 20 nM
  stoichiometry N: 0.616 ± 0.003
[6]
  stoichiometry N: 0.766 ± 0.011
[7]
  Kd: 4880 ± 540 nM
  stoichiometry N: 0.66 ± 0.013
